# T1: PUF4 RNA-binding domain (Saccharomyces cerevisiae, UniProt P25339 537-888)
# T1 sequence: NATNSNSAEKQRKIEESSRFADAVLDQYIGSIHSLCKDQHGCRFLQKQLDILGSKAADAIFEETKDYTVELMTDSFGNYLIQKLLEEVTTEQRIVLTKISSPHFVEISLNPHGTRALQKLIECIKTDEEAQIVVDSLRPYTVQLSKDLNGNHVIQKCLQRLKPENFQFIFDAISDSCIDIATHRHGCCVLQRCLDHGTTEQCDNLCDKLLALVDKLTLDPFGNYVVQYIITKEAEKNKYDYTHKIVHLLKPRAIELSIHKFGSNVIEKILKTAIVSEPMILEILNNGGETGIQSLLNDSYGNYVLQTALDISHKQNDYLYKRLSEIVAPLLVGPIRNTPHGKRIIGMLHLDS
# Target: T1, PUF4 RNA-binding domain
# Assay: Mg; RNA-MaP; 20 mM Na-HEPES pH 7.4, 30 mM KOAc, 0.75 mM MgCl2, 0.1% Tween-20, 5% glycerol, 0.1 mg/mL BSA, 2 mM DTT; 25 C; 0.0125-409.6 nM protein
# Settings: tags: N-His6-TEV cleaved; C-SNAP kept, Cy3B-labelled; label: tethered on chip by stalled RNA polymerase
row,Binder,Kd [nM]
1,Ic_S2_P5E.1_K5.1_C5.1_H5.1_A5.1_[T6A]_[A7C]_F5.1_[T8G]_[T9G]_[A10T]_T5.1 (ssRNA) RNA: UUUGAUUAAUAUGAUAUCGUUCUUUCUUGUAUACGGUUUCUUUCUCGAUAUCAUAUUAAUCUUU,571
2,Ic_S2_P5E.1_K5.1_C5.1_H5.1_A5.1_[T6G]_[A7T]_F5.1_[T8A]_[T9C]_[A10T]_T5.1 (ssRNA) RNA: UUUGAUUAAUAUGAUAUCGUUCUUUCUUGUAUGUACUUUCUUUCUCGAUAUCAUAUUAAUCUUU,26.3
3,Ic_S2_P5E.1_K5.1_C5.1_H5.1_A5.1_[T5C]_[T6A]_[A7C]_F5.1_[T8C]_[T9C]_[A10C]_T5.1 (ssRNA) RNA: UUUGAUUAAUAUGAUAUCGUUCUUUCUUGUACACCCCUUCUUUCUCGAUAUCAUAUUAAUCUUU,67.3
4,Ic_S2_P5E.1_K5.1_C5.1_H5.1_A5.1_[T5G]_[T6C]_F5.1_[T8A]_[T9A]_[A10C]_T5.1 (ssRNA) RNA: UUUGAUUAAUAUGAUAUCGUUCUUUCUUGUAGCAAACUUCUUUCUCGAUAUCAUAUUAAUCUUU,653
5,Ic_S2_P5E.1_K5.1_C5.1_H5.1_A5.1_[T5C]_[T6G]_[A7C]_F5.1_[T8C]_[T9C]_[A10C]_T5.1 (ssRNA) RNA: UUUGAUUAAUAUGAUAUCGUUCUUUCUUGUACGCCCCUUCUUUCUCGAUAUCAUAUUAAUCUUU,140
6,Ic_S2_P5E.1_K5.1_C5.1_H5.1_A5.1_[T5A]_[A7T]_F5.1_[T8G]_[T9C]_[A10C]_T5.1 (ssRNA) RNA: UUUGAUUAAUAUGAUAUCGUUCUUUCUUGUAAUUGCCUUCUUUCUCGAUAUCAUAUUAAUCUUU,622
7,Ic_S2_P5E.1_K5.1_C5.1_H5.1_A5.1_[T5C]_[T6C]_F5.1_[T9C]_[A10T]_T5.1 (ssRNA) RNA: UUUGAUUAAUAUGAUAUCGUUCUUUCUUGUACCAUCUUUCUUUCUCGAUAUCAUAUUAAUCUUU,5.17
8,Ic_S2_P5E.1_K5.1_C5.1_H5.1_A5.1_[T5A]_[T6A]_F5.1_[A10T]_T5.1 (ssRNA) RNA: UUUGAUUAAUAUGAUAUCGUUCUUUCUUGUAAAAUUUUUCUUUCUCGAUAUCAUAUUAAUCUUU,53.3
9,Ic_S2_P5E.1_K5.1_C5.1_H5.1_A5.1_[T5C]_[T6C]_F5.1_[T8G]_[T9C]_[A10T]_T5.1 (ssRNA) RNA: UUUGAUUAAUAUGAUAUCGUUCUUUCUUGUACCAGCUUUCUUUCUCGAUAUCAUAUUAAUCUUU,496
10,Ic_S2_P5E.1_K5.1_C5.1_H5.1_A5.1_[T5G]_[A7C]_F5.1_[T9G]_[A10T]_T5.1 (ssRNA) RNA: UUUGAUUAAUAUGAUAUCGUUCUUUCUUGUAGUCUGUUUCUUUCUCGAUAUCAUAUUAAUCUUU,60.9
11,Ic_S2_P5E.1_K5.1_C5.1_H5.1_A5.1_[T5G]_[A7C]_F5.1_[T8G]_[A10G]_T5.1 (ssRNA) RNA: UUUGAUUAAUAUGAUAUCGUUCUUUCUUGUAGUCGUGUUCUUUCUCGAUAUCAUAUUAAUCUUU,492
12,Ic_S2_P5E.1_K5.1_C5.1_H5.1_A5.1_[T5A]_[T6A]_[A7T]_F5.1_[T8C]_[A10T]_T5.1 (ssRNA) RNA: UUUGAUUAAUAUGAUAUCGUUCUUUCUUGUAAAUCUUUUCUUUCUCGAUAUCAUAUUAAUCUUU,76.2
13,Ic_S2_P5E.1_K5.1_C5.1_H5.1_A5.1_[T5A]_[T6C]_[A7C]_F5.1_[T8C]_[T9A]_[A10T]_T5.1 (ssRNA) RNA: UUUGAUUAAUAUGAUAUCGUUCUUUCUUGUAACCCAUUUCUUUCUCGAUAUCAUAUUAAUCUUU,591
14,Ic_S2_P5E.1_K5.1_C5.1_H5.1_A5.1_[T6A]_[A7C]_F5.1_[T9A]_[A10C]_T5.1 (ssRNA) RNA: UUUGAUUAAUAUGAUAUCGUUCUUUCUUGUAUACUACUUCUUUCUCGAUAUCAUAUUAAUCUUU,1.15
15,Ic_S2_P5E.1_K5.1_C5.1_H5.1_A5.1_[T5C]_[A7T]_F5.1_[T8C]_[T9A]_[A10T]_T5.1 (ssRNA) RNA: UUUGAUUAAUAUGAUAUCGUUCUUUCUUGUACUUCAUUUCUUUCUCGAUAUCAUAUUAAUCUUU,80.5
16,Ic_S2_P5E.1_K5.1_C5.1_H5.1_A5.1_[T5A]_[T6C]_[A7C]_F5.1_[T8C]_[T9A]_T5.1 (ssRNA) RNA: UUUGAUUAAUAUGAUAUCGUUCUUUCUUGUAACCCAAUUCUUUCUCGAUAUCAUAUUAAUCUUU,> 2300
17,Ic_S2_P5E.1_K5.1_C5.1_H5.1_A5.1_[T6A]_[A7C]_F5.1_[T8C]_[T9A]_[A10C]_T5.1 (ssRNA) RNA: UUUGAUUAAUAUGAUAUCGUUCUUUCUUGUAUACCACUUCUUUCUCGAUAUCAUAUUAAUCUUU,31.2
18,Ic_S2_P5E.1_K5.1_C5.1_H5.1_A5.1_[T5C]_[T6A]_F5.1_[A10C]_T5.1 (ssRNA) RNA: UUUGAUUAAUAUGAUAUCGUUCUUUCUUGUACAAUUCUUCUUUCUCGAUAUCAUAUUAAUCUUU,6.33
19,Ic_S2_P5E.1_K5.1_C5.1_H5.1_A5.1_[T5C]_[T6C]_[A7T]_F5.1_[T9G]_[A10G]_T5.1 (ssRNA) RNA: UUUGAUUAAUAUGAUAUCGUUCUUUCUUGUACCUUGGUUCUUUCUCGAUAUCAUAUUAAUCUUU,210
20,Ic_S2_P5E.1_K5.1_C5.1_H5.1_A5.1_[T5C]_[T6G]_[A7T]_F5.1_[T8G]_[T9G]_[A10T]_T5.1 (ssRNA) RNA: UUUGAUUAAUAUGAUAUCGUUCUUUCUUGUACGUGGUUUCUUUCUCGAUAUCAUAUUAAUCUUU,211
21,Ic_S2_P5E.1_K5.1_C5.1_H5.1_A5.1_[T5C]_[T6A]_[A7C]_F5.1_[T9C]_T5.1 (ssRNA) RNA: UUUGAUUAAUAUGAUAUCGUUCUUUCUUGUACACUCAUUCUUUCUCGAUAUCAUAUUAAUCUUU,7.78
22,Ic_S2_P5E.1_K5.1_C5.1_H5.1_A5.1_[T5C]_F5.1_[T8A]_[T9A]_[A10T]_T5.1 (ssRNA) RNA: UUUGAUUAAUAUGAUAUCGUUCUUUCUUGUACUAAAUUUCUUUCUCGAUAUCAUAUUAAUCUUU,25.3
23,Ic_S2_P5E.1_K5.1_C5.1_H5.1_A5.1_[T5C]_F5.1_[T9A]_[A10T]_T5.1 (ssRNA) RNA: UUUGAUUAAUAUGAUAUCGUUCUUUCUUGUACUAUAUUUCUUUCUCGAUAUCAUAUUAAUCUUU,0.408

# — article PMC9352680, “A comprehensive thermodynamic model for RNA binding by the Saccharomyces cerevisiae Pumilio protein PUF4”
